19 molecules from patent US11141452 (dated 2021) can be followed below.

The chains are these.
T1: human NK1 receptor (human, UniProt P25103)
T1 chain: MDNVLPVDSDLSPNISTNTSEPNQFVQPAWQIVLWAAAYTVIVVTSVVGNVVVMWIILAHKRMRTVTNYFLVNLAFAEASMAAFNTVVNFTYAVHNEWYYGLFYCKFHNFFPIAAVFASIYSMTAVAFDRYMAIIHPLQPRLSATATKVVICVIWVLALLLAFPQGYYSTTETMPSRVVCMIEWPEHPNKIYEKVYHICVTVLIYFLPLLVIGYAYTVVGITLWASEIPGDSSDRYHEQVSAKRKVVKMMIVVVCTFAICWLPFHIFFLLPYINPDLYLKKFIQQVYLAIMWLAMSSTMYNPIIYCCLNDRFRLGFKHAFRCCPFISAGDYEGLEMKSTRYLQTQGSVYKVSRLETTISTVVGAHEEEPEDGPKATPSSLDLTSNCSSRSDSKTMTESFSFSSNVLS

T2: delta opioid receptor (DOR) (UniProt P41143)
T2 chain: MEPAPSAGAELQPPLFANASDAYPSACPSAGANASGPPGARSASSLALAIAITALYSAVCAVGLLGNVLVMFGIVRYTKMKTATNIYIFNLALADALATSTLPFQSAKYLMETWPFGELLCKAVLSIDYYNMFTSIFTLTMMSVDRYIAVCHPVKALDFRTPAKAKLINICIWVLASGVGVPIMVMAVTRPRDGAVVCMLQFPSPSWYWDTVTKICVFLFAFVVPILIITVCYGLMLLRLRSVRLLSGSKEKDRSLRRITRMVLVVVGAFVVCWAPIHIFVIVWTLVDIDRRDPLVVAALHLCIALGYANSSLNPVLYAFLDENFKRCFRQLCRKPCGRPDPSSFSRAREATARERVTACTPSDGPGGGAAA

T3: rat NK1 receptor (rat, UniProt P14600)
T3 chain: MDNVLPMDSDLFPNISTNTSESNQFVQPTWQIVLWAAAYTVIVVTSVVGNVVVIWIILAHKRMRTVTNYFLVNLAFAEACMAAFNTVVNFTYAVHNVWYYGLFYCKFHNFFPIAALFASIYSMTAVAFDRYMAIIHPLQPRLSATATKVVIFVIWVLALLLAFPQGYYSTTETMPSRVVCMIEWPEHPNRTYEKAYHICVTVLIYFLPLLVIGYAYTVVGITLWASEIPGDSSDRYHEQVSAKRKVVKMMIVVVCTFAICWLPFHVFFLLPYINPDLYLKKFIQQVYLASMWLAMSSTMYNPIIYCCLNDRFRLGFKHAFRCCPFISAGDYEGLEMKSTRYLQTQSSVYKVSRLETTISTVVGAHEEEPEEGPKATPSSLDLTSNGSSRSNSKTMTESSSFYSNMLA

Non-standard residues stand in square brackets, D forms with d. No end group written: not given here. *: point of attachment. NH(3,5-(CF3)2-benzyl) = FC(F)(F)c1cc(CN*)cc(C(F)(F)F)c1; NMePhe(4-F) = CN[C@@H](Cc1ccc(F)cc1)C(=O)O; Phe(4-F) = N[C@@H](Cc1ccc(F)cc1)C(=O)O; Dmt = Cc1cc(O)cc(C)c1C[C@H](N)C(=O)O; NMeF = CN[C@@H](Cc1ccccc1)C(=O)O; Orn = NCCC[C@H](N)C(=O)O; Dab = NCC[C@H](N)C(=O)O; NHBn = c1ccc(CN*)cc1

In the first assay the target is T1, human NK1 receptor. Briefly: competition.
[Dmt][dA]FGYPLW (not fully specified (C-terminus)) [AKG118] registered a Ki of 2.34 nM. This counts as single-digit nanomolar.

Another assay deals with T2, delta opioid receptor (DOR). As to the kind of experiment: competition.
Turning to Y[dA]G[Phe(4-F)]PLW-{NH(3,5-(CF3)2-benzyl)} [AKG190], the Ki was 0.2 nM. In other words, the sub-nanomolar range.

In the case of XAGFPLW (Dmt1, D-Ala2, Phe(4-F)4; C-terminal NH-Bn(3',5'-(CF3)2)) [AKG127], the Ki was found to be 1 nM.

On to XAGFPLW (Dmt1, D-Ala2, NMePhe4; C-terminal NH-Bn(3',5'-(CF3)2)) [AKG115], for which the Ki was 5 nM.

The molecule XAGFPLW (Dmt1, D-Ala2, Phe(4-Cl)4; C-terminal NH-Bn(3',5'-(CF3)2)) [AKG191] registered a Ki of 5 nM.

As to Y[dA]G[NMeF]PLW-{NH(3,5-(CF3)2-benzyl)} [AKG117], the Ki was 237 nM.

On to XAGFPLW (Dmt1, D-Ala2; C-terminal NH-Bn(3',5'-(CF3)2)) [AKG116], for which the Ki turned out to be 1 nM.

In a further assay the target is T3, rat NK1 receptor. Briefly: competition.
As to Y[dA]G[Phe(4-F)]PLW-{NH(3,5-(CF3)2-benzyl)} [AKG190], the Ki stood at 34.4 nM.

Take XAGFPLW (Dmt1, D-Ala2, Phe(4-F)4; C-terminal NH-Bn(3',5'-(CF3)2)) [AKG127]: the Ki was 29.4 nM. This Ki and that of the molecule before are within 1.5-fold of each other.

For the molecule XAGFPLW (Dmt1, D-Ala2, NMePhe4; C-terminal NH-Bn(3',5'-(CF3)2)) [AKG115], the Ki is 48.3 nM.

On to XAGFPLW (Dmt1, D-Ala2, Phe(4-Cl)4; C-terminal NH-Bn(3',5'-(CF3)2)) [AKG191], for which the affinity corresponds to a Ki of 26.5 nM.

In turn, Y[dA]G[NMeF]PLW-{NH(3,5-(CF3)2-benzyl)} [AKG117] displayed a Ki of 61.1 nM.

The molecule XAGFPLW (Dmt1, D-Ala2; C-terminal NH-Bn(3',5'-(CF3)2)) [AKG116] returned a Ki of 26.9 nM.

A further assay has as its target T3, rat NK1 receptor. Briefly: competition. The source holds these as a separate data set.
Molecule Y[dA]G[NMeF][Dab]PLW-NHBn [AKG172] yielded an inhibitory constant (Ki) of 8.24 nM.

Regarding Y[dA]G[NMeF][Orn]PLW (not fully specified (C-terminus)) [AKG173], the Ki was found to be 65.2 nM.

Another assay deals with T1, human NK1 receptor. As to the kind of experiment: competition. This is another data set of the same source.
Y[dA]G[NMeF][Dab]PLW-NHBn [AKG172] returned a Ki of 3.05 nM.

Take Y[dA]G[NMeF][Orn]PLW (not fully specified (C-terminus)) [AKG173]: the Ki stood at 15.5 nM.

The target of the next assay is T3, rat NK1 receptor. Briefly: competition. This is another data set of the same source.
In turn, YPFFPLW [AKG224] registered a Ki of 33.7 nM.

YPFFPLW [AKG222] yielded an inhibition constant (Ki) of 32.4 nM.

YPFFPLW [AKG226] had a Ki of 31.7 nM. This Ki and that of the molecule before are within 1.5-fold of each other.

Another assay has as its target mu opioid receptor (MOR) (UniProt P35372). As to the kind of experiment: competition.
For [Dmt][dA]FGYPLW (not fully specified (C-terminus)) [AKG118], affinity was put at a Ki of 1 nM.

The target is the same in another assay. Briefly: competition. This is another data set of the same source.
Y[dA]G[NMePhe(4-F)]QPLW-NHBn [AKG143] displayed a Ki of 2 nM.

Y[dA]G[Phe(4-F)]QPLW-NHBn [AKG142] had a Ki of 8 nM.

Consider Y[dA]G[NMeF]QPLW (not fully specified (C-terminus)) [AKG129], for which the Ki was 7 nM.

Molecule Y[dA]GF[dN]PLW-NHBn [AKG102] gave a Ki of 90 nM. This Ki lies about 13-fold higher than the previous one.

Take Y[dA]GFNPLW (not fully specified (C-terminus)) [AKG104]: the affinity, expressed as Ki, was 51 nM. Compared with the last molecule, the Ki is about 1.8-fold lower.

In turn, Y[dA]GFQPLW (not fully specified (C-terminus)) [AKG105] showed a Ki of 38 nM.

With Y[dA]GF[dQ]PLW (not fully specified (C-terminus)) [AKG103], the affinity corresponds to a Ki of 116 nM.

A further assay concerns the target T1, human NK1 receptor. Briefly: competition. This is another data set of the same source.
The molecule Y[dA]G[Phe(4-F)]PLW-{NH(3,5-(CF3)2-benzyl)} [AKG190] registered an inhibitory constant (Ki) of 5.61 nM.

As for XAGFPLW (Dmt1, D-Ala2, Phe(4-F)4; C-terminal NH-Bn(3',5'-(CF3)2)) [AKG127], the Ki amounted to 0.88 nM.

The molecule Y[dA]G[NMeF]PLW-{NH(3,5-(CF3)2-benzyl)} [AKG117] displayed a Ki of 3.35 nM.

Molecule XAGFPLW (Dmt1, D-Ala2; C-terminal NH-Bn(3',5'-(CF3)2)) [AKG116] registered a Ki of 1.4 nM.

The next assay concerns the target mu opioid receptor (MOR) (UniProt P35372). Briefly: competition. The source holds these as a separate data set.
For Y[dA]G[Phe(4-F)]PLW-{NH(3,5-(CF3)2-benzyl)} [AKG190], the Ki turned out to be 4 nM.

On to XAGFPLW (Dmt1, D-Ala2, Phe(4-F)4; C-terminal NH-Bn(3',5'-(CF3)2)) [AKG127], for which affinity was put at a Ki of 1 nM.

Regarding XAGFPLW (Dmt1, D-Ala2, NMePhe4; C-terminal NH-Bn(3',5'-(CF3)2)) [AKG115], affinity was put at a Ki of 1 nM. This counts as single-digit nanomolar.

As for XAGFPLW (Dmt1, D-Ala2, Phe(4-Cl)4; C-terminal NH-Bn(3',5'-(CF3)2)) [AKG191], the affinity corresponds to a Ki of 2 nM. Compared with the last molecule, the Ki is about 2-fold higher.

On to Y[dA]G[NMeF]PLW-{NH(3,5-(CF3)2-benzyl)} [AKG117], for which the Ki was 27 nM. Against the preceding molecule, the Ki is about 14-fold higher.

Take XAGFPLW (Dmt1, D-Ala2; C-terminal NH-Bn(3',5'-(CF3)2)) [AKG116]: affinity was put at a Ki of 3 nM.

Another assay concerns the target T2, delta opioid receptor (DOR). Briefly: competition. This is another data set of the same source.
The molecule Y[dA]G[NMePhe(4-F)]QPLW-NHBn [AKG143] registered a Ki of 0.7 nM.

Molecule Y[dA]G[Phe(4-F)]QPLW-NHBn [AKG142] had a Ki of 2 nM.

In the case of Y[dA]G[NMeF]QPLW (not fully specified (C-terminus)) [AKG129], the Ki was found to be 1 nM. This Ki lies about 2-fold lower than the previous one.

Y[dA]GF[dN]PLW-NHBn [AKG102] came in with an inhibition constant Ki of 54 nM.

In turn, Y[dA]GFNPLW (not fully specified (C-terminus)) [AKG104] displayed an inhibitory constant (Ki) of 17 nM.

Y[dA]GFQPLW (not fully specified (C-terminus)) [AKG105] had a Ki of 9 nM. Against the preceding molecule, the Ki is about 1.9-fold lower.

The next assay deals with mu opioid receptor (MOR) (UniProt P35372). As to the kind of experiment: competition. The source holds these as a separate data set.
Chain of mu opioid receptor (MOR) (P35372 whole entry): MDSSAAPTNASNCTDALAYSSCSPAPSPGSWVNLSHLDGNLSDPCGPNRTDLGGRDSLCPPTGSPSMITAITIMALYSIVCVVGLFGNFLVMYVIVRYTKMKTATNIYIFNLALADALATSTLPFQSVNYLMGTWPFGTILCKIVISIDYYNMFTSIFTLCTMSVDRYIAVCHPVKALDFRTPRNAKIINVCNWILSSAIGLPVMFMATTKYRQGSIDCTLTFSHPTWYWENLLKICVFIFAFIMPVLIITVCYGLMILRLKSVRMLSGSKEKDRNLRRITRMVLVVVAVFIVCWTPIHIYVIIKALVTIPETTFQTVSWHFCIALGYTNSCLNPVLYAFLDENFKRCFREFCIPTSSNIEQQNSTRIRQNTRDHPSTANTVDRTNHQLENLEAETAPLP
Y[dA]G[NMeF][Dab]PLW-NHBn [AKG172] showed an inhibitory constant (Ki) of 8 nM.

Molecule Y[dA]G[NMeF][Orn]PLW (not fully specified (C-terminus)) [AKG173] had an inhibition constant (Ki) of 5 nM.

The target of the next assay is T2, delta opioid receptor (DOR). As to the kind of experiment: competition. This is another data set of the same source.
Turning to [Dmt][dA]FGYPLW (not fully specified (C-terminus)) [AKG118], the Ki is 3 nM.

A further assay has the same target. Briefly: competition. This is another data set of the same source.
In turn, Y[dA]G[NMeF][Dab]PLW-NHBn [AKG172] registered a Ki of 100 nM.

Y[dA]G[NMeF][Orn]PLW (not fully specified (C-terminus)) [AKG173]: the Ki was determined as 0.05 nM. This Ki lies about 2000-fold lower than the previous one.

The next assay deals with T3, rat NK1 receptor. As to the kind of experiment: competition. The source holds these as a separate data set.
As for Y[dA]G[NMePhe(4-F)]QPLW-NHBn [AKG143], the Ki amounted to 21.7 nM.

In the case of Y[dA]GF[dN]PLW-NHBn [AKG102], the affinity, expressed as Ki, was 133 nM.

Take Y[dA]GFNPLW (not fully specified (C-terminus)) [AKG104]: the Ki was found to be 20.2 nM.

As for Y[dA]GFQPLW (not fully specified (C-terminus)) [AKG105], affinity was put at a Ki of 12.5 nM.

As to Y[dA]GF[dQ]PLW (not fully specified (C-terminus)) [AKG103], the Ki was determined as 106 nM. This Ki lies about 8.5-fold higher than the previous one.

The next assay concerns the target T1, human NK1 receptor. As to the kind of experiment: competition. The source holds these as a separate data set.
Molecule Y[dA]G[NMePhe(4-F)]QPLW-NHBn [AKG143] registered a Ki of 3.2 nM. In other words, the single-digit nanomolar range.

In turn, Y[dA]G[Phe(4-F)]QPLW-NHBn [AKG142] had a Ki of 5.71 nM.

Consider Y[dA]G[NMeF]QPLW (not fully specified (C-terminus)) [AKG129], for which affinity was put at a Ki of 0.83 nM.

With Y[dA]GF[dN]PLW-NHBn [AKG102], the Ki was determined as 2.26 nM. Against the preceding molecule, the Ki is about 2.7-fold higher.

Molecule Y[dA]GFNPLW (not fully specified (C-terminus)) [AKG104] had a Ki of 1.16 nM.

Regarding Y[dA]GFQPLW (not fully specified (C-terminus)) [AKG105], the affinity corresponds to a Ki of 0.92 nM.

For the molecule Y[dA]GF[dQ]PLW (not fully specified (C-terminus)) [AKG103], the Ki is 2.71 nM.

A further assay addresses T3, rat NK1 receptor. Briefly: competition. The source holds these as a separate data set.
In the case of [Dmt][dA]FGYPLW (not fully specified (C-terminus)) [AKG118], the Ki turned out to be 25.4 nM.

Another assay concerns the target T1, human NK1 receptor. Briefly: competition. This is another data set of the same source.
Regarding YPFFPLW [AKG224], the affinity corresponds to a Ki of 3.39 nM.

For YPFFPLW [AKG222], the affinity, expressed as Ki, was 4.19 nM.

Turning to YPFFPLW [AKG226], the affinity corresponds to a Ki of 5.9 nM.

In general, Ki refers to a measure of affinity in units of concentration, obtained from inhibition or displacement. A lower Ki goes with higher affinity.
